Assay results from patent US20250263490A1 (VIB VZW, published 2025).
Numbering of substitutions follows the chain as printed. Like-named read-outs stand apart in the source and are kept apart here.

Assays:
[1] = molecular target: T1, recombinant human domain 1-3His6 of the cation-independent mannose-6-phosphate receptor (human, UniProt P11717 41-467); assay: in-tandem competitive BLI, biotinylated hDom1-3His6 on SA sensors, purified VHH at 400 nM
T1 construct: Biotinylated (NHS-PEG4-biotin) for BLI; Glycosylated; also called hDom1-3His6; hCI-M6PRD1-D3

[2] = molecular target: T1, recombinant human domain 1-3His6 of the …; assay: ELISA on coated antigen (100 ng), anti-VHH-HRP, A450
Method: (§1) To determine the effect of site-directed mutations, an ELISA was performed. To this end, 100 ng of each successfully purified mutant was coated per well on Nunc Maxisorp plates in 50 mM MES, 150 mM NaCl, pH 6.5 buffer overnight at 4° C. […] Coating-only controls were included for background correction. […] Reactions were stopped after five minutes using a 2N H₂SO₄ solution and plates were read at 450 nm, with a 655 nm background correction. Data were analyzed using the GraphPad Prism 9 software.

[3] = molecular target: T1, recombinant human domain 1-3His6 of the …; assay: as above; remark: listed apart in the source
Method: as §1

[4] = molecular target: T1, recombinant human domain 1-3His6 of the …; assay: BLI exp 1, dissoc pH 7
Method: (§2) For each of the 11 anti-CI-M6PR VHHs, a biolayer interferometry (BLI) experiment was performed in which the hDom₁₋₃His₆ was biotinylated and coupled to streptavidin biosensor tips. Afterwards, the tips were incubated with serially diluted VHHs during the association phase and dissociation was performed at pH 7.4. Similarly, dissociation was performed at pH 7.0, pH 6.0 and pH 5.0 as well after regeneration of the biosensor tips. […] The anti-CI-M6PR antibody (clone 2G11) and GBP were used as positive and negative controls, respectively.
(§3) Analysis of the binding kinetics was performed using an Octet Red96 (FortéBio) device with Streptavidin SA Biosensor tips (VWR 733-2145). Therefore, 1 mL of human domain₁₋₃His₆ (0.5 mg/mL in 50 mM MES, 150 mM NaCl, pH 6.5) was incubated at room temperature for 30 minutes with EZ-Link™ NHS-PEG4-Biotin (1 mg) (Thermo Fischer A39259) and NaHCO₃ (100 mM). Biotinylated human domain₁₋₃His₆ was purified using a Zeba spin desalting Column™ (7K MWCO, 2 mL, Thermo Fischer 89890) and 1 μg/mL was used for immobilization on the Streptavidin SA Biosensor tips. The loaded tips were dipped into a particular anti-CI-M6PR VHH solution, serially diluted in kinetics buffer (0.2M NaH₂PO₄, 0.1M Na⁺ citrate, 0.01% BSA, 0.002% Tween20, pH 7.4). This was followed by dissociation of the particular anti-CI-M6PR VHH in kinetics buffer of pH 7.4, followed by regeneration in Glycine (10 mM, pH 3) and neutralisation. Same cycle was repeated but the dissociation was performed at pH 7.0, 6.0, 5.0, 4.5 and 4.0. A reference well and reference sensors were subtracted from ligand sensors afterwards and Savitsky-Golay filtering was applied on the data. Fitting of the data was performed using a 1:1 model, grouped per pH of dissociation.

[5] = molecular target: T1, recombinant human domain 1-3His6 of the …; assay: ELISA on coated antigen, 1st of 2 repeats
Method: (§4) FIGS. 4A-4B. Affinity of anti-CI-M6PR VHHs for recombinant human CI-M6PR Domain 1-3His₆ determined by ELISA. A & B. Measurements for each of the 11 anti-CI-M6PR VHHs in serial dilution binding to the coated human CI-M6PR Domain 1-3His₆ antigen. Detection was performed using an anti-VHH antibody coupled to HRP, and measured as the absorbance of the TMB substrate at 450 nm, correlating to the amount of bound VHH as plotted at the Y-axis. The Log₁₀ concentrations of the serially diluted VHHs were plotted at the X-axis. […] A & B represent replicates but using a different concentration of human CI-M6PR Domain 1-3His₆ (in (FIG. 4A): 0-0.75 μM and in (FIG. 4B): 0-1 μM).
(§5) We evaluated the affinity of the VHHs against the hDom₁₋₃His₆ using ELISA. Coated hDom₁₋₃His₆ was incubated with serially diluted VHH that was afterwards detected using an anti-VHH antibody, coupled to HRP.

[6] = molecular target: T1, recombinant human domain 1-3His6 of the …; assay: BLI exp 2, dissoc pH 6
Method: as §2
(§6) Analysis of the binding kinetics was performed using an Octet Red96 (FortéBio) device with Streptavidin SA Biosensor tips (VWR, 733-2145). To this end, 1 mL of hCI-M6PR_D1-D3 (0.5 mg/mL in 50 mM MES, 150 mM NaCl, pH 6.5) was incubated at room temperature for 30 minutes with a two-fold molar excesses of EZ-Link™ NHS-PEG₄-Biotin (Thermo Fischer, A39259) and NaHCO₃ (100 mM, pH 8.3). Biotinylated hCIMPR_D1-D3 was purified using a Zeba spin desalting column (Thermo Fischer, 89890) and protein concentration was calculated by measuring the absorbance at 280 nm (extinction coefficient 50320 M¹ cm⁻¹). Two-fold biotin-labelled antigen was loaded on the tips (2.5 μg/mL) and subsequently dipped into a particular anti-CI-M6PR VHH-containing solution (ranging from 0-100 nM). Serial VHH dilutions were made in kinetics buffer (0.2 M Na₂HPO₄, 0.1 M Na⁺ citrate, 0.01% BSA, 0.002% Tween20, pH 7.4). After association (100 sec), dissociation was conducted (500 sec) for each anti-CI-M6PR VHH in the kinetics buffer, followed by biosensor regeneration in glycine (10 mM, pH 3) and neutralisation. The same cycle was repeated with dissociation performed in kinetics buffer of pH 7.0, 6.5, 6.0, 5.5, and 5.0.
(§7) A reference well and reference sensors were subtracted from ligand sensors afterwards and Savitsky-Golay filtering was applied on the data. Fitting of the data was performed using a 1:1 model, grouped per dissociation pH.

[7] = molecular target: T1, recombinant human domain 1-3His6 of the …; assay: BLI exp 1, dissoc pH 5
Method: as §2, §3

[8] = molecular target: T1, recombinant human domain 1-3His6 of the …; assay: BLI at pH 7.4, 1st of 2 repeats
Method: as §2, §3

[9] = molecular target: T1, recombinant human domain 1-3His6 of the …; assay: BLI exp 2, dissoc pH 5
Method: as §2, §6, §7

[10] = molecular target: T2, recombinant mouse domain 1-3His6 of CI-M6PR (mouse, UniProt Q07113 36-418); assay: ELISA: coated mouse CI-M6PR Domain 1-3His6, serially diluted VHH, anti-VHH-HRP, TMB, Abs 450 nm; sigmoidal regression [table at the right]
T2 construct: Genbank NM_010515.2); Range includes the signal peptide; also called mDom1-3His6; mCI-M6PRD1-D3
Method: FIGS. 5A-5B. Affinity of anti-CI-M6PR VHHs for recombinant mouse CI-M6PR Domain 1-3His₆ determined by ELISA. (FIG. 5A) Measurement for each of the 11 anti-CI-M6PR VHHs in serial dilution binding to the coated mouse antigen. Detection was performed using an anti-VHH antibody coupled to HRP, and measured as the absorbance of the TMB substrate at 450 nm, correlating to the amount of bound VHH as plotted at the Y-axis. The Log₁₀ concentrations of the serially diluted VHHs were plotted at the X-axis.
To evaluate the cross-reactivity of the anti-CI-M6PR nanobodies between the human and mouse CI-M6PR domain 1-3His₆ antigen, ELISA was performed with the eleven serially diluted anti-CI-M6PR nanobodies. […] By performing sigmoidal regression on the derived absorbance curves, half-maximal effective concentration (EC₅₀) values of each VHH were acquired, representing the required concentration to occupy 50% of the coated antigen. As a negative control, GBP was included in the assay.

[11] = molecular target: T1, recombinant human domain 1-3His6 of the …; assay: ELISA on coated antigen, 2nd of 2 repeats
Method: as §4, §5

[12] = molecular target: T1, recombinant human domain 1-3His6 of the …; assay: BLI exp 2, dissoc pH 7
[13] = molecular target: T1, recombinant human domain 1-3His6 of the …; assay: BLI exp 1, dissoc pH 7.4
Method: as §2, §3

[14] = molecular target: T1, recombinant human domain 1-3His6 of the …; assay: BLI exp 1, dissoc pH 6
Method: as §2, §3

T2 sequence (Q07113 other isoform, or with tags, fused parts or gaps): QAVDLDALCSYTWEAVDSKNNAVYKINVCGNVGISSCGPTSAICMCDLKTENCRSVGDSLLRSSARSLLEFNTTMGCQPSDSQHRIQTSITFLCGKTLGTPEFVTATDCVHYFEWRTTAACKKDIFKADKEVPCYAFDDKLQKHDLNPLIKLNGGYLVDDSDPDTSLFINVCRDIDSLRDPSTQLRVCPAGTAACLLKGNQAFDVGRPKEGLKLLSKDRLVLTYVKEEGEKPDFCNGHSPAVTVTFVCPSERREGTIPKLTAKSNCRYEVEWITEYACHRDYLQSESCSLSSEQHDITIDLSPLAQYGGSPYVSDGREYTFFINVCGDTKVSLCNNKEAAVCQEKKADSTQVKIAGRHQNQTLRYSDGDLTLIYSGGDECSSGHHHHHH

B1: humanized VHH7 variant VHH7 h3 (VHH)
VHH: DVQLVESGGGLVQPGGSLRLSCAASGIIFSDNRMDWYRQAPGKQREWVATLASYGWKTYADSVKGRFTISRDNTKNTVYLQMNSLRPEDTAVYYCKASSPVLNDIWGQGTLVTVSS
notes: made in E. coli
- binding result [1]: binds

B2: humanized VHH7 variant VHH7 h1 (VHH)
VHH: B1 VHH with D1E, T74S
notes: made in E. coli
- binding result [1]: binds

B3: humanized VHH7 variant VHH7 h2 (VHH)
VHH: B1 VHH with T74S
notes: made in E. coli
- binding result [1]: binds

B4: humanized VHH8 variant VHH8 h2 (VHH)
VHH: DVQLVESGGGLVQPGGSLRLSCAASGRTFNTYNWGWFRQAPGKEREFVAAIRWSSSKTSYADSVKGRFTISRDNSKNTVYLQMNSLRPEDTAVYYCAASIVDFTTNPSHFGSWGQGTLVTVSS
notes: made in E. coli
- binding result [1]: binds

B5: humanized VHH8 variant VHH8 h1 (VHH)
VHH: B4 VHH with D1E
notes: made in E. coli
- binding result [1]: binds

B6: humanized VHH8 variant VHH8 h3 (VHH)
VHH: B4 VHH with P14A
notes: made in E. coli
- binding result [1]: binds

B7: humanized VHH7 variant VHH7hWN (VHH)
VHH: B1 VHH with T74A
notes: His6-tagged, made in HEK293S
- EC50 (read off the curve) [2]: ~0.5 nM
- EC50 (read off the curve) [3]: ~0.5 nM

B8: humanized VHH8 variant VHH8hWN (VHH)
VHH: B4 VHH with S75A, V79I
notes: His6-tagged, made in HEK293S
- EC50 (read off the curve) [2]: ~3 nM
- EC50 (read off the curve) [3]: ~3 nM

B9: anti-CI-M6PR VHH2 (VHH)
VHH: QVQLQESGGGLVQPGGSLRLSCVFSGRTFMSYDVGWFRQAPGKERELLSSITSSSSSPYYAESVKGRFAVSRDGAKKTVYLRMNSLEPEDTAVYYCAARENWRNDWQYWGQTQVTVSS
notes: His6-tagged; made in Pichia pastoris
- Kd [4]: 24.2 nM
- koff [4]: 0.0161 s⁻¹
- kon [4]: 665000 M⁻¹ s⁻¹
- EC50 [5]: 0.0608 nM
- koff [6]: 0.0748 s⁻¹
- kon [6]: 3.76e+06 M⁻¹ s⁻¹
- Kd [7]: 10 nM
- koff [7]: 0.00746 s⁻¹
- kon [7]: 745000 M⁻¹ s⁻¹
- Kd [8]: 5.3 nM
- koff [8]: 0.0036 s⁻¹
- kon [8]: 679000 M⁻¹ s⁻¹
- koff [9]: 0.074 s⁻¹
- kon [9]: 745000 M⁻¹ s⁻¹
- EC50 [10]: 104 nM
- EC50 [11]: 0.177 nM
- koff [12]: 0.0136 s⁻¹
- kon [12]: 1.56e+06 M⁻¹ s⁻¹
- Kd [13]: 5.3 nM
- koff [13]: 0.0036 s⁻¹
- kon [13]: 679000 M⁻¹ s⁻¹
- Kd [14]: 5.96 nM
- koff [14]: 0.00513 s⁻¹
- kon [14]: 862000 M⁻¹ s⁻¹
